Data on nine molecules can be found in patent US20250152730A1, “ANTI-TM4SF1 ANTIBODY-DRUG CONJUGATES COMPRISING CLEAVABLE LINKERS AND METHODS OF USING SAME” (Angiex, Inc., priority 2022, published 2025).

The conditions of series [1]: in vivo; cited from earlier work.
The conditions of series [2]: metabolite of trastuzumab emtansine (Kadcyla); every 2 weeks; cited from earlier work.
Series [3] has as its system HUVEC (endothelial cell). The series can be described thus: In vitro cell proliferation inhibition (killing) assay, HUVEC. The format is cell-based, human. The following applies: 5 days incubation. The protocol:
Cells are incubated with antibody conjugate at various concentrations. The concentrations evaluated include a control, and five-fold dilution starting from 333.335 nM (333.335 nM, 66.667 nM, 13.334 nM, 2.667 nM, 0.533 nM (533.3360 pM), 106.6672 pM, 21.3334 pM, 4.2667 pM. Briefly, cells are seeded into 96-well plates a day before the antibody conjugates are added, whereupon cell viability is measured by PrestoBlue (ThermoFisher Scientific) through a plate reader (Varioskan™ LUX multimode microplate reader) five days after treatment with serial dilutions of the antibody conjugates. Cells are treated with media only or isotype matched control antibodies, as a negative control. The EC50 values are generated via GraphPad.
The effects of antibody drug-conjugates (drug to antibody ratio (DAR) varying from 1.8 to 4.2) containing a drug (maytansine) were assessed in cultured mouse (MS1) and human (HUVEC, A549, MiaPaCa2 and SKOV3) cells. Characteristics of the Exemplary Antibodies 1-5, each of which contains human IgG1 constant region with YTEC mutation, can be found in Table 3A. Cells were incubated for 5 days with the antibody drug conjugate before assessing cell viability on day 5.

Series [4] has as its target T1, human TM4SF1 (transmembrane-4 L six family member-1) on HUVEC cells (UniProt P30408 1-202).
T1 chain: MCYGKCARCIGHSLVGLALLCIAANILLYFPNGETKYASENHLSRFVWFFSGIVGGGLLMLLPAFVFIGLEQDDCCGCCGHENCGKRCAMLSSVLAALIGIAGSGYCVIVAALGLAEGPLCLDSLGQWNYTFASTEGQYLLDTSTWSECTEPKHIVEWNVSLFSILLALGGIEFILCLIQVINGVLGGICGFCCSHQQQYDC
The series can be described thus: flow cytometry cell binding; HUVEC cells. (In general: Flow cytometry measures light scatter and fluorescence of single cells or particles in a stream.)

A short description of series [5]: Hydrophobicity by hydrophobic interaction chromatography (HIC). Format: physicochemical. Set-up: unit not given here. To be noted: for Hydrophobicity (HIC), Average: average of 3 runs. The protocol:
The hydrophobicity of exemplary anti-TM4SF1 antibodies, and their Fc mutation containing variants were assessed in this study, using hydrophobic interaction chromatography. The tested antibodies were AGX-A07 (the “wt,” “C,” and “YTEC”); MS (the “wt,” “C,” and “YTEC”). An anti-Her2 antibody with an Fc mutation was used as a control. Both in case of AGX-A07 and the murine surrogate anti-TM4SF1 antibody, it was observed that the hydrophobicity increased with the “C” and “YTEC” mutations.

As to `COc1ccc(/C=C\c2cc(OC)c(OC)c(OC)c2)cc1OP(=O)(O)O` [CA4P, Combretastatin], the “Patients who experienced heart attacks while being treated” value in series [1] is given as “seven”.
Take `COc1cc2cc(c1Cl)N(C)C(=O)CC(O)C1(C)OC1C(C)C1CC(O)(NC(=O)O1)C(OC)/C=C/C=C(\C)C2` (stereo not drawn) [Maytansinol, maytansinol]: the Found in plasma in series [2] is given as 7%.
For orientation: EC50 means the concentration at which the effect is half-maximal. Consider “BrAc-Galactose-Sar-N-Me-Alanine-DM1 [Free LP]”, for which the EC50 in series [3] was 906 nM.

B1: AGX-A07 variant comprising Fc region mutation N297C (antibody, V domains shown)
VH: QIQLVQSGPELKKPGETVKISCKASGYTFTNYGVKWVKQAPGKDLKWMGWINTYTGNPIYAADFKGRFAFSLETSASTAFLQINNLKNEDTATYFCVRFQYGDYRYFDVWGAGTTVTVSS
VL: QIILSQSPAILSASPGEKVTMTCRANSGISFINWYQQKPGSSPKPWIYGTANLASGVPARFGGSGSGTSYSLTISRVEAEDAATYYCQQWSSNPLTFGAGTKLELR
Take B1: the EC50 in series [4] came out at 2.3 nM.

B2: A07C: AGX-A07 anti-TM4SF1 antibody with Fc region mutation N297C (the “C” variant) (antibody, V domains shown)
VH: B1 VH
VL: B1 VL
Turning to B2, in series [5], the “Hydrophobicity (HIC), Run 1” value turned out to be 5.614; the “Hydrophobicity (HIC), Run 2” value is 5.591; the “Hydrophobicity (HIC), Run 3” value stood at 5.606; the “Hydrophobicity (HIC), Average” value is recorded as 5.60.

B3: AGX-A07 anti-TM4SF1 antibody (without Fc region mutations) (antibody, V domains shown)
VH: B1 VH
VL: B1 VL
Regarding B3, in series [4], the EC50 is 2.16 nM.

B4: AGX-A07 variant comprising Fc region mutations N297C, M252Y, S254T and T256E (antibody, V domains shown)
VH: B1 VH
VL: B1 VL
In turn, B4 had an EC50 in series [4] of 1.75 nM.

B5: A07-wt: AGX-A07 anti-TM4SF1 antibody without Fc region mutations (antibody, V domains shown)
VH: B1 VH
VL: B1 VL
On to B5, for which, in series [5], the “Hydrophobicity (HIC), Run 1” value is recorded as 5.547; the “Hydrophobicity (HIC), Run 2” value is reported as 5.523; the “Hydrophobicity (HIC), Run 3” value is 5.568; the “Hydrophobicity (HIC), Average” value is given as 5.55.

B6: A07-YTEC: AGX-A07 with N297C in combination with M252Y, S254T, and T256E (the “YTEC” variant) (antibody, V domains shown)
VH: B1 VH
VL: B1 VL
As for B6, in series [5], the “Hydrophobicity (HIC), Run 1” value is listed as 5.781; the “Hydrophobicity (HIC), Run 2” value came out at 5.77; the “Hydrophobicity (HIC), Run 3” value stood at 5.888; the “Hydrophobicity (HIC), Average” value was 5.81.
